Results as given in patent US20230235013A1 (MABSOLVE, published 2023).

T1: mouse FcRn (Sino Biological Cat. No. CT029-M08H) (mouse, UniProt Q61559 22-297; P01887 21-119)
T1 construct: Bought protein, captured on an anti-histidine chip
T1 sequence (looked up): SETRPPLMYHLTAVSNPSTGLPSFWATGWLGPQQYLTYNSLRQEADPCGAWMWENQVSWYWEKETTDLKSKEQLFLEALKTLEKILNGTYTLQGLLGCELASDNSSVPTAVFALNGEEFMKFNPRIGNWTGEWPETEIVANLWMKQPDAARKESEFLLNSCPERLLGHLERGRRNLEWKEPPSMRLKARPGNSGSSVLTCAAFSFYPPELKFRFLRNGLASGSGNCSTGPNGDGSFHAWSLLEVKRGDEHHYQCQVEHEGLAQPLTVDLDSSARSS
T1 sequence (b2m, looked up): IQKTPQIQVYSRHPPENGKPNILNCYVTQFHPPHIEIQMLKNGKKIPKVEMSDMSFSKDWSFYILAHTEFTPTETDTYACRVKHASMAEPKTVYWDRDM


Tests used:
[1] = target: T2, Human C1q (Sigma Cat. No. 20476), HRP-labelled (human, UniProt P02745 23-245; P02746 28-253; P02747 29-245); experiment: ELISA, antibody coated, HRP-C1q; Expt 2, buffer alone 0.091
T2 construct: Coupled to horse-radish peroxidase with Lightning-Link kit; also called HRP-labelled C1q

[2] = target: T3, human FcRn (R&D Systems Cat. No. 8639-Fc) (human, UniProt P55899 24-297; P61769 21-119); experiment: SPR, FcRn captured; Expt 1
[3] = target: T3, human FcRn (R&D Systems Cat. No. …); experiment: SPR, FcRn captured; Expt 3
[4] = target: T3, human FcRn (R&D Systems Cat. No. …); experiment: SPR, FcRn captured; Expt 2
[5] = target: T3, human FcRn (R&D Systems Cat. No. …); experiment: SPR, FcRn captured; Mean
[6] = target: T4, C-terminus biotinylated human FcRn attached to Streptavidin-SmBiT (FcRn-SAv-SmBiT) (human, UniProt P55899 24-297; P61769 21-119, limits assumed, C-terminus biotinylated (AviTag), attached to Streptavidin-SmBiT); experiment: NanoBiT FcRn competition immunoassay, competitor Tracer-LgBiT human IgG, pH 6.0
T4 construct: Kit reagent; also called hFcRn-AviTag

[7] = target: T2, Human C1q (Sigma Cat. No. 20476), …; experiment: ELISA, antibody coated, HRP-C1q; Expt 3, buffer alone 0.102
[8] = target: T2, Human C1q (Sigma Cat. No. 20476), …; experiment: ELISA, antibody coated, HRP-C1q; Expt 1, buffer alone 0.061
[9] = target: T3, human FcRn (R&D Systems Cat. No. …); experiment: SPR, FcRn captured via anti-His, pH 6.0;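 note: SPR binding signal relative to the reference cell, corrected by subtracting the response of a blank sample of running buffer alone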
[10] = target: T5, cynomolgus monkey FcRn (Sino Biological Cat. No. CT031-C08H) (cynomolgus monkey, UniProt Q8SPV9 24-297; Q8SPW0 21-119); experiment: SPR, FcRn captured via anti-His, pH 6.0;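 note: SPR binding signal relative to the reference cell, corrected by subtracting the response of a blank sample of running buffer alone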
T5 construct: Bought protein, captured on an anti-histidine chip; also called cynomolgus FcRn

[11] = target: T1, mouse FcRn (Sino Biological Cat. No. …); experiment: SPR, FcRn captured via anti-His, pH 6.0;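 note: SPR binding signal relative to the reference cell, corrected by subtracting the response of a blank sample of running buffer alone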

Row | Mean Absorbance [1] | Corrected and normalised response (% of wild-type reference) [2] | Corrected and normalised response (% of wild-type reference) [3] | Corrected and normalised response (% of wild-type reference) [4] | Corrected and normalised response (% of wild-type reference) [5] | Mean binding activity (% of wild-type reference) [6] | Mean Absorbance [7] | Mean Absorbance [8] | Corrected response (RU) [9] | Corrected response (RU) [10] | Corrected response (RU) [11] | Binder
1 | 0.08 absorbance (450 nm) | 95.1 % of wild-type reference | 93.6 % of wild-type reference | 96.4 % of wild-type reference | 95.1 % of wild-type reference | 96.7 % of wild-type reference | 0.103 absorbance (450 nm) |  |  |  |  | anti-CD20 (rituximab) human IgG1 L234A/L235A/P329G (LALAPG reference) (antibody, EU numbering; also called 2-66; copies: 2 + 2) heavy: not shown light: QIVLSQSPAILSASPGEKVTMTCRASSSVSYIHWFQQKPGSSPKPWIYATSNLASGVPVRFSGSGSGTSYSLTISRVEAEDAATYYCQQWTSNPPTFGGGTKLEIKRTVAAPSVFIFPPSDEQLKSGTASVVCLLNNFYPREAKVQWKVDNALQSGNSQESVTEQDSKDSTYSLSSTLTLSKADYEKHKVYACEVTHQGLSSPVTKSFNRGEC
2 | 0.074 absorbance (450 nm) | 100 % of wild-type reference | 100 % of wild-type reference | 101 % of wild-type reference | 100 % of wild-type reference |  | 0.087 absorbance (450 nm) |  |  |  |  | anti-CD20 (rituximab) human IgG1 L234S/L235G/G236R (antibody, EU numbering; also called 2-47; 1-140; copies: 2 + 2) heavy: QVQLQQPGAELVKPGASVKMSCKASGYTFTSYNMHWVKQTPGRGLEWIGAIYPGNGDTSYNQKFKGKATLTADKSSSTAYMQLSSLTSEDSAVYYCARSTYYGGDWYFNVWGAGTTVTVSSASTKGPSVFPLAPSSKSTSGGTAALGCLVKDYFPEPVTVSWNSGALTSGVHTFPAVLQSSGLYSLSSVVTVPSSSLGTQTYICNVNHKPSNTKVDKKVEPKSCDKTHTCPPCPAPESGRGPSVFLFPPKPKDTLMISRTPEVTCVVVDVSHEDPEVKFNWYVDGVEVHNAKTKPREEQYNSTYRVVSVLTVLHQDWLNGKEYKCKVSNKALPAPIEKTISKAKGQPREPQVYTLPPSRDELTKNQVSLTCLVKGFYPSDIAVEWESNGQPENNYKTTPPVLDSDGSFFLYSKLTVDKSRWQQGNVFSCSVMHEALHNHYTQKSLSLSPGK light: QIVLSQSPAILSASPGEKVTMTCRASSSVSYIHWFQQKPGSSPKPWIYATSNLASGVPVRFSGSGSGTSYSLTISRVEAEDAATYYCQQWTSNPPTFGGGTKLEIKRTVAAPSVFIFPPSDEQLKSGTASVVCLLNNFYPREAKVQWKVDNALQSGNSQESVTEQDSKDSTYSLSSTLTLSKADYEKHKVYACEVTHQGLSSPVTKSFNRGEC
3 | 0.1 absorbance (450 nm) | 96.5 % of wild-type reference | 95.8 % of wild-type reference | 95.7 % of wild-type reference | 96 % of wild-type reference |  | 0.095 absorbance (450 nm) | 0.041 absorbance (450 nm) | 539 RU | 1260 RU | 146 RU | anti-CD20 (rituximab) human IgG1 L234A/L235S/G236R (antibody, EU numbering; also called 2-4; 1-14; copies: 2 + 2) heavy: not shown light: QIVLSQSPAILSASPGEKVTMTCRASSSVSYIHWFQQKPGSSPKPWIYATSNLASGVPVRFSGSGSGTSYSLTISRVEAEDAATYYCQQWTSNPPTFGGGTKLEIKRTVAAPSVFIFPPSDEQLKSGTASVVCLLNNFYPREAKVQWKVDNALQSGNSQESVTEQDSKDSTYSLSSTLTLSKADYEKHKVYACEVTHQGLSSPVTKSFNRGEC

More lines, now with the values behind:

Row | Binder | Mean Absorbance [1] | Corrected and normalised response (% of wild-type reference) [2] | Corrected and normalised response (% of wild-type reference) [3] | Corrected and normalised response (% of wild-type reference) [4] | Corrected and normalised response (% of wild-type reference) [5] | Mean binding activity (% of wild-type reference) [6] | Mean Absorbance [7] | Mean Absorbance [8] | Corrected response (RU) [9] | Corrected response (RU) [10] | Corrected response (RU) [11]
4 | anti-CD20 (rituximab) human IgG1 L234Q/L235S/G236R (antibody, EU numbering; also called 2-33; 10.77; copies: 2 + 2) heavy: QVQLQQPGAELVKPGASVKMSCKASGYTFTSYNMHWVKQTPGRGLEWIGAIYPGNGDTSYNQKFKGKATLTADKSSSTAYMQLSSLTSEDSAVYYCARSTYYGGDWYFNVWGAGTTVTVSSASTKGPSVFPLAPSSKSTSGGTAALGCLVKDYFPEPVTVSWNSGALTSGVHTFPAVLQSSGLYSLSSVVTVPSSSLGTQTYICNVNHKPSNTKVDKKVEPKSCDKTHTCPPCPAPEQSRGPSVFLFPPKPKDTLMISRTPEVTCVVVDVSHEDPEVKFNWYVDGVEVHNAKTKPREEQYNSTYRVVSVLTVLHQDWLNGKEYKCKVSNKALPAPIEKTISKAKGQPREPQVYTLPPSRDELTKNQVSLTCLVKGFYPSDIAVEWESNGQPENNYKTTPPVLDSDGSFFLYSKLTVDKSRWQQGNVFSCSVMHEALHNHYTQKSLSLSPGK light: QIVLSQSPAILSASPGEKVTMTCRASSSVSYIHWFQQKPGSSPKPWIYATSNLASGVPVRFSGSGSGTSYSLTISRVEAEDAATYYCQQWTSNPPTFGGGTKLEIKRTVAAPSVFIFPPSDEQLKSGTASVVCLLNNFYPREAKVQWKVDNALQSGNSQESVTEQDSKDSTYSLSSTLTLSKADYEKHKVYACEVTHQGLSSPVTKSFNRGEC | 0.084 absorbance (450 nm) | 98.4 % of wild-type reference | 98.2 % of wild-type reference | 97.8 % of wild-type reference | 98.1 % of wild-type reference |  | 0.083 absorbance (450 nm) | 0.026 absorbance (450 nm) | 535 RU | 1230 RU | 166 RU
5 | anti-CD20 (rituximab) human IgG1 L234T/L235S/G236R (antibody, EU numbering; also called 2-62; copies: 2 + 2) heavy: QVQLQQPGAELVKPGASVKMSCKASGYTFTSYNMHWVKQTPGRGLEWIGAIYPGNGDTSYNQKFKGKATLTADKSSSTAYMQLSSLTSEDSAVYYCARSTYYGGDWYFNVWGAGTTVTVSSASTKGPSVFPLAPSSKSTSGGTAALGCLVKDYFPEPVTVSWNSGALTSGVHTFPAVLQSSGLYSLSSVVTVPSSSLGTQTYICNVNHKPSNTKVDKKVEPKSCDKTHTCPPCPAPETSRGPSVFLFPPKPKDTLMISRTPEVTCVVVDVSHEDPEVKFNWYVDGVEVHNAKTKPREEQYNSTYRVVSVLTVLHQDWLNGKEYKCKVSNKALPAPIEKTISKAKGQPREPQVYTLPPSRDELTKNQVSLTCLVKGFYPSDIAVEWESNGQPENNYKTTPPVLDSDGSFFLYSKLTVDKSRWQQGNVFSCSVMHEALHNHYTQKSLSLSPGK light: QIVLSQSPAILSASPGEKVTMTCRASSSVSYIHWFQQKPGSSPKPWIYATSNLASGVPVRFSGSGSGTSYSLTISRVEAEDAATYYCQQWTSNPPTFGGGTKLEIKRTVAAPSVFIFPPSDEQLKSGTASVVCLLNNFYPREAKVQWKVDNALQSGNSQESVTEQDSKDSTYSLSSTLTLSKADYEKHKVYACEVTHQGLSSPVTKSFNRGEC | 0.067 absorbance (450 nm) |  |  |  |  |  | 0.119 absorbance (450 nm) | 0.037 absorbance (450 nm) |  |  | 
6 | anti-CD20 (rituximab) human IgG1 L234T/L235Q/G236R (antibody, EU numbering; also called 2-60; copies: 2 + 2) heavy: QVQLQQPGAELVKPGASVKMSCKASGYTFTSYNMHWVKQTPGRGLEWIGAIYPGNGDTSYNQKFKGKATLTADKSSSTAYMQLSSLTSEDSAVYYCARSTYYGGDWYFNVWGAGTTVTVSSASTKGPSVFPLAPSSKSTSGGTAALGCLVKDYFPEPVTVSWNSGALTSGVHTFPAVLQSSGLYSLSSVVTVPSSSLGTQTYICNVNHKPSNTKVDKKVEPKSCDKTHTCPPCPAPETQRGPSVFLFPPKPKDTLMISRTPEVTCVVVDVSHEDPEVKFNWYVDGVEVHNAKTKPREEQYNSTYRVVSVLTVLHQDWLNGKEYKCKVSNKALPAPIEKTISKAKGQPREPQVYTLPPSRDELTKNQVSLTCLVKGFYPSDIAVEWESNGQPENNYKTTPPVLDSDGSFFLYSKLTVDKSRWQQGNVFSCSVMHEALHNHYTQKSLSLSPGK light: QIVLSQSPAILSASPGEKVTMTCRASSSVSYIHWFQQKPGSSPKPWIYATSNLASGVPVRFSGSGSGTSYSLTISRVEAEDAATYYCQQWTSNPPTFGGGTKLEIKRTVAAPSVFIFPPSDEQLKSGTASVVCLLNNFYPREAKVQWKVDNALQSGNSQESVTEQDSKDSTYSLSSTLTLSKADYEKHKVYACEVTHQGLSSPVTKSFNRGEC | 0.077 absorbance (450 nm) | 94.6 % of wild-type reference | 94.3 % of wild-type reference | 96.1 % of wild-type reference | 95 % of wild-type reference | 84.7 % of wild-type reference |  | 0.049 absorbance (450 nm) |  |  | 
